Results on 4 molecules are retold here after publication PMC3355120, “LGR6 Is a High Affinity Receptor of R-Spondins and Potentially Functions as a Tumor Suppressor” (PLoS ONE, 2012).

In test [1] the target is T1, human LGR6 (leucine-rich repeat containing, G protein-coupled receptor 6) with a Flag-tag at the N-terminus, … (human, UniProt Q9HBX8-3 25-967).
T1 construct: human LGR6, predicted mature form AA25-967 of NP_001017403; The CD8 signal peptide replaces LGR6's own; also called Flag-LGR6; LGR6 WT; source: HEK293T cells, transiently transfected (reporter assays); not shown: Flag, N-terminal, kept
T1 sequence (looked up): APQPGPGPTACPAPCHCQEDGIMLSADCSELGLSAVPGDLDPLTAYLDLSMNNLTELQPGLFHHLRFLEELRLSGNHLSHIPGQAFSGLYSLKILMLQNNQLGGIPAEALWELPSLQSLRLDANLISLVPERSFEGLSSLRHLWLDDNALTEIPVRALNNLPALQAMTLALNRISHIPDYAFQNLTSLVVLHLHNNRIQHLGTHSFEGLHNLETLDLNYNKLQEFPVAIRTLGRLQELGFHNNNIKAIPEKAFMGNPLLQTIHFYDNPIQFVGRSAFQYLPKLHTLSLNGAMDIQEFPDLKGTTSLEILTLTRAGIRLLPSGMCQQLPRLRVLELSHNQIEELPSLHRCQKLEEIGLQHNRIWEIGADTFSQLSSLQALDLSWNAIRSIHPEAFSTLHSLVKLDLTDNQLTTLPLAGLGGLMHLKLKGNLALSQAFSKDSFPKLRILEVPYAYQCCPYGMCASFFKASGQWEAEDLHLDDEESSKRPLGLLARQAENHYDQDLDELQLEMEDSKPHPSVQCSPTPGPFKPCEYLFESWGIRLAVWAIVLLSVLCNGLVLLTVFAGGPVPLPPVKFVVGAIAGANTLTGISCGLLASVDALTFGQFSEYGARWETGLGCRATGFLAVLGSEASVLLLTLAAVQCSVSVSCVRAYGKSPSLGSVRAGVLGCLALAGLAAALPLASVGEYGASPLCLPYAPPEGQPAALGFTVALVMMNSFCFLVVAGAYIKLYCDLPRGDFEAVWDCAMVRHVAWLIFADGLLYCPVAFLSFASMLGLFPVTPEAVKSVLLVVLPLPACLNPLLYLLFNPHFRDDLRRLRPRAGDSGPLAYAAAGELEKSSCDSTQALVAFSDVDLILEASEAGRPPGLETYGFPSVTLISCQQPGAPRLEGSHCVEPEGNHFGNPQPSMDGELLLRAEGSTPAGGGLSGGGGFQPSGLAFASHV
The experiment in a line: whole-cell-based competition binding assay; HEK293 cells stably expressing Flag-LGR6 incubated with mRSPO1-Fc plus serial dilutions of purified recombinant RSPO1–4; maximum specific binding is the difference with and without mRSPO1-Fc. The following applies: one partner purified.

The target in test [2] is T1, human LGR6 (leucine-rich repeat …). The experiment in a line: cell-based or functional assay.

B1: purified recombinant R-spondin 3 (ligand, UniProt Q9BXY4 22-272, looked up)
chain: QNASRGRRQRRMHPNVSQGCQGGCATCSDYNGCLSCKPRLFFALERIGMKQIGVCLSSCPSGYYGTRYPDINKCTKCKADCDTCFNKNFCTKCKSGFYLHLGKCLDNCPEGLEANNHTMECVSIVHCEVSEWNPWSPCTKKGKTCGFKRGTETRVREIIQHPSAKGNLCPPTNETRKCTVQRKKCQKGERGKKGRERKRKKPNKGESKEAIPDSKSLESSKEIPEQRENKQQQKKRKVQDKQKSVSVSTVH
notes: R-spondin 3 (RSPO3); also called RSPO3; source: purified recombinant
Usually IC50 stands for the point on the concentration scale where inhibition reaches its midpoint. B1: the IC50 in test [1] came to 1.7 nM.

B2: purified recombinant R-spondin 2 (ligand, UniProt Q6UXX9 22-243, looked up)
chain: QGNRWRRSKRASYVSNPICKGCLSCSKDNGCSRCQQKLFFFLRREGMRQYGECLHSCPSGYYGHRAPDMNRCARCRIENCDSCFSKDFCTKCKVGFYLHRGRCFDECPDGFAPLEETMECVEGCEVGHWSEWGTCSRNNRTCGFKWGLETRTRQIVKKPVKDTILCPTIAESRRCKMTMRHCPGGKRTPKAKEKRNKKKKRKLIERAQEQHSVFLATDRANQ
notes: R-spondin 2 (RSPO2); also called RSPO2; source: purified recombinant
Regarding B2, the IC50 in test [1] is 0.5 nM.

B3: purified recombinant R-spondin 4 (ligand, UniProt Q2I0M5 20-234, looked up)
chain: LNRRKKQVGTGLGGNCTGCIICSEENGCSTCQQRLFLFIRREGIRQYGKCLHDCPPGYFGIRGQEVNRCKKCGATCESCFSQDFCIRCKRQFYLYKGKCLPTCPPGTLAHQNTRECQGECELGPWGGWSPCTHNGKTCGSAWGLESRVREAGRAGHEEAATCQVLSESRKCPIQRPCPGERSPGQKKGRKDRRPRKDRKLDRRLDVRPRQPGLQP
notes: R-spondin 4 (RSPO4); also called RSPO4; source: purified recombinant
Consider B3, for which the IC50 in test [1] worked out at 7 nM.

B4: purified recombinant R-spondin 1 (ligand, UniProt Q2MKA7 21-263, looked up)
chain: SRGIKGKRQRRISAEGSQACAKGCELCSEVNGCLKCSPKLFILLERNDIRQVGVCLPSCPPGYFDARNPDMNKCIKCKIEHCEACFSHNFCTKCKEGLYLHKGRCYPACPEGSSAANGTMECSSPAQCEMSEWSPWGPCSKKQQLCGFRRGSEERTRRVLHAPVGDHAACSDTKETRRCTVRRVPCPEGQKRRKGGQGRRENANRNLARKESKEAGAGSRRRKGQQQQQQQGTVGPLTSAGPA
notes: R-spondin 1 (RSPO1); also called RSPO1; source: purified recombinant
As to B4, in test [1], the concentration for half-maximal inhibition (IC50) is 3.3 nM. For the same molecule, the “Super TOPflash β-catenin reporter in HEK293T cells transfected with LGR6 or vector, serial dilutions of RSPO1 with Wnt3a CM: gain in potency of RSPO1” value in test [2] is roughly 30 fold.
